Data from patent US20260125477A1 (BEIJING MABWORKS BIOTECH, published 2026).

Columns and labels:
Test in all cases: SPR (Biacore T200), antibody captured on Protein A chip, response at 200 nM antigen
[1] = target: T1, human B7-H2/ICOSLG protein, with His tag (human, UniProt O75144 19-258, limits assumed)
T1 construct: Bought protein
T1 sequence (looked up): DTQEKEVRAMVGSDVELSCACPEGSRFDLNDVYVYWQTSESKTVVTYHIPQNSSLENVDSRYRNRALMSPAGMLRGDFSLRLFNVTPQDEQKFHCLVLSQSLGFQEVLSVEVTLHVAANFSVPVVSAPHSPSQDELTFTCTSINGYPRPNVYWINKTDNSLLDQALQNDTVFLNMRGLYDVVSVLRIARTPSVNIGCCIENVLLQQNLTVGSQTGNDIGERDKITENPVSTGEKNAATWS
Protocol: (§1) The anti-human B7-H3 antibodies were tested for their binding capability to B7 family proteins by SPR using Biacore T200 biosensor (Biacore, US) provided with a pre-fixed Protein A sensor chip.
(§2) The dissociation was monitored for 600 sec. The data was analyzed using Biacore 8k evaluation software version 3.0, to obtain the binding responses, and the protein concentration-binding response curves were plotted, to determine the cross-reaction of the anti-human B7-H3 antibodies to the B7 family proteins.

[2] = target: T2, human B7-H4 protein, with His tag (MALS verified) (human, UniProt Q7Z7D3 29-258, limits assumed)
T2 construct: Bought protein
T2 sequence (looked up): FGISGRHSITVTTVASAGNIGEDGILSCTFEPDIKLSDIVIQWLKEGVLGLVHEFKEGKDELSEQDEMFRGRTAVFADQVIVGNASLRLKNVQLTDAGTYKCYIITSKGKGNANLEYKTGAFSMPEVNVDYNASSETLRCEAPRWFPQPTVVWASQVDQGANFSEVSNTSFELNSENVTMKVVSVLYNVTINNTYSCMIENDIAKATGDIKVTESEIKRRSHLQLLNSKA
Protocol: as §1, §2

[3] = target: T3, human B7-H7/HHLA2 protein, with His tag (MALS verified) (human, UniProt Q9UM44 23-344, limits assumed)
T3 construct: Bought protein
T3 sequence (looked up): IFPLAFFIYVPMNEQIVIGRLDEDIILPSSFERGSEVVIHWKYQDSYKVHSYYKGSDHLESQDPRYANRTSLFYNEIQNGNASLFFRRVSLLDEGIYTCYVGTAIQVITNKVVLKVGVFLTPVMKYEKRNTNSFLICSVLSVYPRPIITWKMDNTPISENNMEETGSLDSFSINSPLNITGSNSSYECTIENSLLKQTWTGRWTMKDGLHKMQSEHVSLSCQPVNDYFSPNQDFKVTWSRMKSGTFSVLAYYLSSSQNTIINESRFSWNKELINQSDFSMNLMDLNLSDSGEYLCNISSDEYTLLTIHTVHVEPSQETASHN
Protocol: as §1, §2

[4] = target: T4, human B7-H5/Gi24/VISTA protein, with His tag (MALS verified) (human, UniProt Q9H7M9 33-194)
T4 construct: Bought protein
T4 sequence (looked up): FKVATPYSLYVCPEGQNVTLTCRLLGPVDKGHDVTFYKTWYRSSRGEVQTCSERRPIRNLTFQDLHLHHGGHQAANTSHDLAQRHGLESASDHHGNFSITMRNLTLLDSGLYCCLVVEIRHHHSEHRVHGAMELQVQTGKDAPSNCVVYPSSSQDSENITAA
Protocol: as §1, §2

[5] = target: T5, human PD-L1/B7-H1 protein, with His tag (human, UniProt Q9NZQ7 19-238)
T5 construct: Bought protein
Protocol: as §1, §2

[6] = target: T6, recombinant human CD80 protein (human B7-1/CD80 protein, with His tag) (human, UniProt P33681 35-242)
T6 construct: Bought protein
T6 sequence (looked up): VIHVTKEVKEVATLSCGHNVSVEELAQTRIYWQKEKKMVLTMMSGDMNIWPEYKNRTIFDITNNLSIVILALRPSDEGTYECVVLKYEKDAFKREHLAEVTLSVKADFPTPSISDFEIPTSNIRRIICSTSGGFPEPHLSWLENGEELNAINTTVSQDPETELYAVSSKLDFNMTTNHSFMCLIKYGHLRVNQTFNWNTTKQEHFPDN
Protocol: as §1, §2

[7] = target: T7, human PD-L2/B7-DC protein, with His tag (human, UniProt Q9BQ51 20-219, limits assumed)
T7 construct: Bought protein
T7 sequence (looked up): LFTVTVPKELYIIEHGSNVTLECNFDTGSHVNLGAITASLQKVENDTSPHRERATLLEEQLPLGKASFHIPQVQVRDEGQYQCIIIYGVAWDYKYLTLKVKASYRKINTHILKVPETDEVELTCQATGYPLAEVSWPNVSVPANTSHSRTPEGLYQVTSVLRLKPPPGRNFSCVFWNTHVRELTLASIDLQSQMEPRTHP
Protocol: as §1, §2

[8] = target: T8, human B7-2/CD86 protein, with His tag (human, UniProt P42081 26-247, limits assumed)
T8 construct: Bought protein
T8 sequence (looked up): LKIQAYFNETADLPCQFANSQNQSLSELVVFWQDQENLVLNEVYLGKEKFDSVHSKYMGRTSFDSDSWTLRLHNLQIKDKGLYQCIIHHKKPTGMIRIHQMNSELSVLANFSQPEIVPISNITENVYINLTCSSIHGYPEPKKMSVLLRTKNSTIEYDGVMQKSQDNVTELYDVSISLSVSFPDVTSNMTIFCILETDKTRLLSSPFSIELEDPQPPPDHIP
Protocol: as §1, §2

[9] = target: T9, human B7-H6/NCR3LG1 protein, with His tag (human, UniProt Q68D85 25-262, limits assumed)
T9 construct: Bought protein
T9 sequence (looked up): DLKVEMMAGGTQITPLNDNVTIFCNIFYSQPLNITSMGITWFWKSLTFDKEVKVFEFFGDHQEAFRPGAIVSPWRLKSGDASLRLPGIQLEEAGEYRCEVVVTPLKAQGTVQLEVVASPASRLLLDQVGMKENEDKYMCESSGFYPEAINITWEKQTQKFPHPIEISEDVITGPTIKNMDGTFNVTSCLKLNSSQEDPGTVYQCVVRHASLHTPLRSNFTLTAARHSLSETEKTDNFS
Protocol: as §1, §2

T5 sequence (Q9NZQ7 19-238 limits assumed): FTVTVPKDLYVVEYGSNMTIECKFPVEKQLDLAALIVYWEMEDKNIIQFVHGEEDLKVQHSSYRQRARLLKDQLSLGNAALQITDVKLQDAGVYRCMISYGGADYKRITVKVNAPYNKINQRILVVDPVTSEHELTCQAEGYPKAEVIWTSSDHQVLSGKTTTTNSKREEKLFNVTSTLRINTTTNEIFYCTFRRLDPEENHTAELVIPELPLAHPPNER

B1: 6B5 (antibody, human IgG1, kappa, V domains shown)
VH: QVQLVESGPGLVKPSQTLSLTCTVSDGSISSGGYYWSWIRQHPGKGLEWIGYIYYSGGTYYSPSLKSRVTISVDTSKNQFSLKLTSVTAADTAVYYCARRAGYSSSFDSWGQGILVTVSS
VL: EIVLTQSPLSLPVTPGEPASISCRSSQSLLYSNGYTYLDWYLQKPGQSPQFLIYLGFNRASGVPDRFSGSGSGTDFTLKISRVEAEDVGVYYCMQGLQTPYTFGQGTKLEIKR
notes: also called 6B5-WT; Ab6B5
[1]
  Response (RU): 0.9 RU
[2]
  Response (RU): 0.5 RU
[3]
  Response (RU): 1.3 RU
[4]
  Response (RU): 0.9 RU
[5]
  Response (RU): 1 RU
[6]
  Response (RU): 0.6 RU
[7]
  Response (RU): -0.2 RU
[8]
  Response (RU): 0.3 RU
[9]
  Response (RU): -0.2 RU

B2: 10F5 (antibody, human IgG1, kappa, V domains shown)
VH: QVQLVQSGAEVKKPGSSVKVSCKASGGTFSSQAISWVRQAPGQGLEWMGRIIPMLGIGDYAQSFQGRVTITADKSTSTAYLEVSSLGSEDTAVYYCAREGIAALGTNYYYGMDVWGQGTAVTVSS
VL: EIVMTQSPSSVSASVGDRVTITCRASQGISRWLAWYQQKPGKAPKLLIYVASSLQSGVPSRFSGSGSGTDFTLTISSLQPEDFATYYCQQANSFPFTFGPGTKVDIRR
notes: also called Ab10F5
[1]
  Response (RU): 0.9 RU
[2]
  Response (RU): 0.3 RU
[3]
  Response (RU): 1.7 RU
[4]
  Response (RU): 0.6 RU
[5]
  Response (RU): 0.5 RU
[6]
  Response (RU): 0.7 RU
[7]
  Response (RU): 0 RU
[8]
  Response (RU): 0.5 RU
[9]
  Response (RU): -0.4 RU

B3: 10D7 (antibody, human IgG1, kappa, V domains shown)
VH: QVQLVQSGPGLVKPSETLSLTCTVSGGSISRSSYYWGWIRQPPGKGLEWIGNIFYAGSTYYNPSLKSRVTISVDTSKNQFSLKLSSVTAADTAVYYCARRITGTTGWFDPWGQGTLVTVSS
VL: DIQLTQSPSSLSASVGDRVTITCRASQGIRNDLGWYQQKPGKAPKLLIYAASTLQSGVPSRFSGSGSGTDFTLTISSLQPEDFATYYCLQDYNYPRTFGQGTKVEIKR
notes: also called 10D7-WT; Ab10D7
[1]
  Response (RU): -0.1 RU
[2]
  Response (RU): 0.3 RU
[3]
  Response (RU): 0.2 RU
[4]
  Response (RU): 0.6 RU
[5]
  Response (RU): 0.3 RU
[6]
  Response (RU): 0.2 RU
[7]
  Response (RU): -0.2 RU
[8]
  Response (RU): -0.2 RU
[9]
  Response (RU): -0.5 RU

B4: Enoblituzumab (antibody, human IgG1, kappa, V domains shown)
VH: EVQLVESGGGLVQPGGSLRLSCAASGFTFSSFGMHWVRQAPGKGLEWVAYISSDSSAIYYADTVKGRFTISRDNAKNSLYLQMNSLRDEDTAVYYCGRGRENIYYGSRLDYWGQGTTVTVSS
VL: DIQLTQSPSFLSASVGDRVTITCKASQNVDTNVAWYQQKPGKAPKALIYSASYRYSGVPSRFSGSGSGTDFTLTISSLQPEDFATYYCQQYNNYPFTFGQGTKLEIKR
notes: Humanized anti-B7-H3 antibody of MacroGenics with optimised Fc, used as the positive control; also called AbEno; enoblituzumab-IgG1-Mut
[1]
  Response (RU): -2 RU
[2]
  Response (RU): -2 RU
[3]
  Response (RU): -1.3 RU
[4]
  Response (RU): -1.8 RU
[5]
  Response (RU): -2.2 RU
[6]
  Response (RU): -1.8 RU
[7]
  Response (RU): -1.2 RU
[8]
  Response (RU): -1.5 RU
[9]
  Response (RU): -2.2 RU
